Source: patent publication US20140370563A1, “COMPOSITIONS AND METHODS FOR THE RELIEF OF INHIBITION OF ALDEHYDE DECARBONYLASE” (priority 2011, published 2014)
“Also recorded” adds a separate entry of the source.

Experiments:
[1] = molecular target: T1, aldehyde decarbonylase (ADC) (Prochlorococcus marinus, UniProt Q7V6D4); assay: decarbonylase assay (octadecanal to alkane, GC/MS); format: biochemical
T1 construct: made in house; host or cells: E. coli BL21 (DE3) Gold
T1 sequence (Q7V6D4 1-243): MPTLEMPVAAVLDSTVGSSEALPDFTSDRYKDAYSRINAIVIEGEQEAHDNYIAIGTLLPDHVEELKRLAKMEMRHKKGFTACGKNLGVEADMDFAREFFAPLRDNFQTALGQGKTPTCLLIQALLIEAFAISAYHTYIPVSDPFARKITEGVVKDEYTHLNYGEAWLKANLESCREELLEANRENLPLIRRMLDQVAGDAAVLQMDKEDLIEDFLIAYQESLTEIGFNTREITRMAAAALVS
Procedure: (§1) Typical decarbonylase assays were 0.25 mL and contained 25 mM Tris-Cl pH 7.5, 0.1% Triton X-100, 1 mM DTT, 50 μg/mL maize root ferredoxin and 1 U/mL anabaena vegetative ferredoxin reductase (Cahoon et al. 1997, PNAS 94:4872-4877.), 2 mM NADPH, 200 μM octadecanal, and between 0.2-5 μM ADC or CAT-ADC. A 20 mM octadecanal stock was freshly prepared by sonicating powder in 10% Triton X-100. Octadecanal was obtained from ISCA technologies. When indicated catalase (Sigma C-9322) was added to a final concentration of 4 mg/mL from a 20 mg/mL stock dissolved in 100 mM PIPES pH 6.0. For assays performed in 100% oxygen a reaction master mix without NADPH and a separate NADPH solution were prepared by repeated purging of the sample cell with 100% O2 and vacuum with the use of a Schlenk line. Reactions were initialed by addition of either enzyme, substrate, or NADPH and were incubated at 37° C. and stopped by the addition of an equal volume of ethyl acetate. The organic phase was separated by GC/MS on an HP-5 ms column with oven temperature increasing from 75° C. to 320° C. at 40° C./min with a flow rate of 1.3 ml/min. Substrate and product were identified by comparison to authentic standards.

[2] = substrate: CCCCCCCC/C=C\CCCCCCCC=O; assay: Decarbonylase assay: kinetics of aldehyde decarbonylase activity with aldehyde substrates of different lengths (FIG. 8); recombinant ADC, GenBank CAE21406.1, with N-terminal MGSDKIHHHHHHENLYFQG tag, expressed in E. coli BL21 (DE3) Gold; no mutations stated; format: biochemical, Prochlorococcus marinus; conditions: other: aldehyde as substrate, typical assay 25 mM Tris-Cl pH 7.5, 0.1% Triton X-100, ferredoxin, ferredoxin reductase, 2 mM NADPH, 37° C., GC/MS
Excerpt: (§2) A catalase transcriptional fusion was produced as described below. […] The Catalase used was Ec catalase (GenBank Accession No. U00092.2) though the present invention is not limited to the use of this particular catalase. The ADC used was Pm ADC (GenBank Accession No. CAE21406.1). The ADC contains a diiron site. ADCs utilizing other metals are also suitable for use. For example, ribonucleotide reductase, which is normally a diiron protein can also use Mn (manganese) (Metallomics, 2011, 3(2):110-120, ePub […] Jan. 25). The catalase and ADC sequences were connected by a 20 amino acid linker: […] [SEQ ID NO: 8]. A 6×His-tag was added to the 3′ end for simplified purification. The recombinant catalase-ADC fusion (hybrid) protein (CAT-ADC or CA) was produced using the T7 expression system in E. coli and was purified using Ni-NTA agarose resin.
(§3) The pSpeedET T7 inducible bacterial expression plasmid containing the coding sequence for Prochlorococcus marinus aldehyde decarbonylase (ADC, GenBank: CAE21406.1 [SEQ ID NO: 1]) fused with an N-terminal MGSDKIHHHHHHENLYFQG [SEQ ID NO: 2] tag as constructed by the Joint Center for Structural Genomics, was obtained from the DNASU plasmid repository. The E. coli catalase (katE GenBank: U00096.2 [SEQ ID NO: 3]) ADC fusion protein (CAT-ADC) was constructed by overlap extension PCR. Primers for catalase were: forward—[…] [SEQ ID NO: 4] and reverse—[…] TTTGTCAATCTTAGG [SEQ ID NO: 5]. Primers for ADC were: forward—[…] TTGAGATGCCT [SEQ ID NO: 6] and reverse—[…] [SEQ ID NO: 7]. The final construct contained catalase followed by a 20 amino acid flexible linker domain ([…] [SEQ ID NO: 8]) (Martin et al 2005, Nature 473:1115-1120.) followed by ADC and finally a C-terminal hexahistidine tag and was cloned into the NdeI and XhoI sites of pET24b.
(§4) E. coli BL21 (DE3) Gold cells containing various plasmids were grown at 37° C. to an OD600 of 0.4, were induced with 0.4 mM IPTG, and were grown for an additional 4 hours at 37° C. for ADC or 30° C. for CAT-ADC. Cell pellets were suspended in 20 mM Tris-Cl pH 7.5, 150 mM NaCl, 20 mM imidazole, 5 mM MgCl2, and 0.1 mg/mL DNase and were lysed using a French pressure cell. Cellular debris was removed by centrifugation at 40,000×g for 20 min. Recombinant proteins were purified from the soluble fraction with Ni-NTA resin (Qiagen). Wash and elution buffers were 20 mM Tris-Cl pH 7.5, 300 mM NaCl, and 25 or 250 mM imidazole, respectively. Eluted proteins were immediately exchanged into 20 mM HEPES pH 7.8, 200 mM NaCl using PD-10 desalting columns. Protein concentration was determined with Bradford Assay (Sigma).
as §1

[3] = substrate: CCCCCCCCCCCCCCCCCC=O; assay: as above; format: biochemical, Prochlorococcus marinus; conditions: other: aldehyde as substrate, typical assay 25 mM Tris-Cl pH 7.5, 0.1% Triton X-100, ferredoxin, ferredoxin reductase, 2 mM NADPH, 37° C., GC/MS
Excerpt: as §2, §3, §4, §1

[4] = substrate: CCCCCCCCCCCC=O; assay: as above; format: biochemical, Prochlorococcus marinus; conditions: other: aldehyde as substrate, typical assay 25 mM Tris-Cl pH 7.5, 0.1% Triton X-100, ferredoxin, ferredoxin reductase, 2 mM NADPH, 37° C., GC/MS
Excerpt: as §2, §3, §4, §1

[5] = substrate: CCCCCCCC=O; assay: as above; format: biochemical, Prochlorococcus marinus; conditions: other: aldehyde as substrate, typical assay 25 mM Tris-Cl pH 7.5, 0.1% Triton X-100, ferredoxin, ferredoxin reductase, 2 mM NADPH, 37° C., GC/MS
Excerpt: as §2, §3, §4, §1

[6] = substrate: CCCCCCCCCCCCCCCC=O; assay: as above; format: biochemical, Prochlorococcus marinus; conditions: other: aldehyde as substrate, typical assay 25 mM Tris-Cl pH 7.5, 0.1% Triton X-100, ferredoxin, ferredoxin reductase, 2 mM NADPH, 37° C., GC/MS
Excerpt: as §2, §3, §4, §1

[7] = substrate: CCCCCCCCCCCCCC=O; assay: as above; format: biochemical, Prochlorococcus marinus; conditions: other: aldehyde as substrate, typical assay 25 mM Tris-Cl pH 7.5, 0.1% Triton X-100, ferredoxin, ferredoxin reductase, 2 mM NADPH, 37° C., GC/MS
Excerpt: as §2, §3, §4, §1

[8] = substrate: CCCCCCCCCC=O; assay: as above; format: biochemical, Prochlorococcus marinus; conditions: other: aldehyde as substrate, typical assay 25 mM Tris-Cl pH 7.5, 0.1% Triton X-100, ferredoxin, ferredoxin reductase, 2 mM NADPH, 37° C., GC/MS
Excerpt: as §2, §3, §4, §1

[9] = molecular target: T1, aldehyde decarbonylase (ADC); conditions: in the absence of catalase; Warui et al. 2011; cited from earlier work

## OO [H2O2, hydrogen peroxide, reference compound]
[1]; 4% (50 μM) atmosphere
  inhibition of ADC by H2O2 in low oxygen atmosphere: enhanced
[1]; 100% O2 (1250 μM) atmosphere, FIG. 2
  inhibition of ADC by H2O2 in oxygen atmosphere: lessened
[1]; H2O2 added to decarbonylase assays, FIG. 1A / FIG. 2
  inhibition of ADC activity by H2O2: selectively inhibited; also recorded: increasing inhibition

B1: aldehyde decarbonylase (ADC) (Prochlorococcus marinus str. MIT 9313) (protein)
chain: T1 sequence (Q7V6D4 1-243)
notes: … (His6 tag) (N); made in house; host or cells: E. coli BL21 (DE3) Gold
[2]
  Km: 44.4 ± 7.2 µM
[3]
  Km: 41.3 ± 4.8 µM
[4]
  Km: 45.3 ± 18.5 µM
[5]
  Km: 27.7 ± 9.9 µM
[6]
  Km: 30.1 ± 4.2 µM
[7]
  Km: 18.9 ± 1.7 µM
[8]
  Km: 29.5 ± 6.2 µM

B2: ADC: Prochlorococcus marinus aldehyde decarbonylase, GenBank CAE21406.1, N-terminal His tag (protein, UniProt Q7V6D4 1-243, looked up)
Aldehyde decarbonylase: T1 sequence (Q7V6D4 1-243)
modifications: N-terminal His tag
notes: Prochlorococcus marinus aldehyde decarbonylase, GenBank CAE21406.1, N-terminal His tag
[9]
  turnovers of ADC before it becomes inactive: approximately three
[1]; 200 μM substrate, 1 mM H2O2 added, FIG. 6A
  sensitivity of decarbonylase activity to H2O2 inhibition: inhibited by H2O2
[1]; 200 μM substrate, excess NADPH, ferredoxin, FNR, FIG. 6A
  decarbonylase activity with or without added catalase: highest activity only when catalase was added
[1]; without catalase, FIG. 1B
  time after which ADC activity was inhibited: about 15 min
  turnovers until ADC activity was inhibited: about 3 turnovers

B3: catalase: catalase enzyme (Sigma C-9322) added at 4 mg/mL; converts hydrogen peroxide to water and oxygen (protein, UniProt P00432 2-527, looked up)
Catalase: ADNRDPASDQMKHWKEQRAAQKPDVLTTGGGNPVGDKLNSLTVGPRGPLLVQDVVFTDEMAHFDRERIPERVVHAKGAGAFGYFEVTHDITRYSKAKVFEHIGKRTPIAVRFSTVAGESGSADTVRDPRGFAVKFYTEDGNWDLVGNNTPIFFIRDALLFPSFIHSQKRNPQTHLKDPDMVWDFWSLRPESLHQVSFLFSDRGIPDGHRHMNGYGSHTFKLVNANGEAVYCKFHYKTDQGIKNLSVEDAARLAHEDPDYGLRDLFNAIATGNYPSWTLYIQVMTFSEAEIFPFNPFDLTKVWPHGDYPLIPVGKLVLNRNPVNYFAEVEQLAFDPSNMPPGIEPSPDKMLQGRLFAYPDTHRHRLGPNYLQIPVNCPYRARVANYQRDGPMCMMDNQGGAPNYYPNSFSAPEHQPSALEHRTHFSGDVQRFNSANDDNVTQVRTFYLKVLNEEQRKRLCENIAGHLKDAQLFIQKKAVKNFSDVHPEYGSRIQALLDKYNEEKPKNAVHTYVQHGSHLSAREKANL
[1]; Maize FNR/anabaena Fd, Spinach FNR/ferredoxin, PMS/NADH, FIG. 10
  relief of inhibition by catalase in all electron transport systems studied: relieves the inhibition
[1]; catalase added, 0, 1 or 10 mM H2O2 (FIG. 3), FIG. 1B
  relief of H2O2 inhibition of ADC by added catalase: restoration of ADC activity; also recorded: effective in overcoming the H2O2 induced inhibition of ADC
[1]; excess aldehyde substrate, NADPH, ferredoxin NADPH reductase and ferredoxin, 16 hrs (FIG. 9)
  turnovers of the ADC reaction in the presence of catalase: greater than 150 turnovers
